This is an account of results in patent US20040014658A1 (PROCHON BIOTECH, published 2004).

In this experiment the target is L37M-W144G-FGF9 (human, UniProt P31371 38-208). In words: ex vivo mouse femur growth with FGFR3 neutralizing Fab MSPRO-59 (inferred).

Protocol: Femoral bone cultures were performed by excising the hind limbs of wild type mice. The limbs were carefully cleaned from the surrounding tissue (skin and muscles) and the femora exposed. The femora were removed and further cleared from tissue remains and ligaments. The femora were measured for their initial length, using a binocular with an eyepiece micrometer ruler. […] In addition, the medium contains BSA (0.2%), β-glycerophosphate (1 mM) and freshly prepared ascorbic acid (50 μg/ml). The bones were cultured for 15 days. Measurements of bone length and medium replacement were performed every three days.

B1: FGFR3 of wild type mouse femora (receptor)
chain: EPPGPEQRVVRRAAEVPGPEPSQQEQVAFGSGDTVELSCHPPGGAPTGPTVWAKDGTGLVASHRILVGPQRLQVLNASHEDAGVYSCQHRLTRRVLCHFSVRVTDAPSSGDDEDGEDVAEDTGAPYWTRPERMDKKLLAVPAANTVRFRCPAAGNPTPSISWLKNGKEFRGEHRIGGIKLRHQQWSLVMESVVPSDRGNYTCVVENKFGSIRQTYTLDVLERSPHRPILQAGLPANQTAILGSDVEFHCKVYSDAQPHIQWLKHVEVNGSKVGPDGTPYVTVLKTAGANTTDKELEVLSLHNVTFEDAGEYTCLAGNSIGFSHHSAWLVVLPAEEELMETDEAGSVYAGVLSYGVVFFLFILVVAAVILCRLRSPPKKGLGSPTVHKVSRFPLKRQVSLESNSSMNSNTPLVRIARLSSGEGPVLANVSELELPADPKWELSRTRLTLGKPLGEGCFGQVVMAEAIGIDKDRTAKPVTVAVKMLKDDATDKDLSDLVSEMEMMKMIGKHKNIINLLGACTQGGPLYVLVEYAAKGNLREFLRARRPPGMDYSFDACRLPEEQLTCKDLVSCAYQVARGMEYLASQKCIHRDLAARNVLVTEDNVMKIADFGLARDVHNLDYYKKTTNGRLPVKWMAPEALFDRVYTHQSDVWSFGVLLWEIFTPGGPSPYPGIPVEELFKLLKEGHRMDKPASCTHDLYMIMRECWHAVPSQRPTFKQLVEDLDRILTVTSTDEYLDLSVPFEQYSPGGQDTPSSSSSGDDSVFTHDLLPPGPPSNGGPRT
notes: whole, on cells; Endogenous receptor in bone tissue culture
Consider B1, for which the binding result is “binds”.
